In assay [1] the target is T1, HuCXCL1 (Homo sapiens, UniProt P09341).
T1 construct: made in house; host or cells: Expi293 expression system (transient), protein from the culture supernatant
T1 sequence (P09341 35-107): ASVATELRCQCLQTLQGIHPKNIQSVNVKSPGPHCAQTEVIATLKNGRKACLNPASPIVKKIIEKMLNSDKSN
As to the kind of experiment: ELISA, inhibition of binding of HuCXCL1 to GAG (heparin, heparan sulfate). The format is biochemical. As to conditions: antibody 0 to 10 μg/mL; biotin-labeled heparin or heparan sulfate 10 μg/mL. The procedure: (§1) Thus, the effect of Hu5A-5E11 on the binding of CXCLs to GAG was evaluated by ELISA assay using plates on which the antigen (HuCXCL1 protein) used for immunization or HuCXCL2, 3 and 5 and MsCXCL1 and 2 proteins had been directly immobilized. CXCLs other than HuCXCL1 were purchased from PROTEINTECH and used. Biotin-labeled heparan sulfate and heparin were purchased from PG Research and used.
(§2) To 96-well plates, phosphate-buffered saline (PBS) containing 3 μg/mL of HuCXCL1, 2, 3 or 5 or MsCXCL1 or 10 μg/mL of MsCXCL2 was added in a volume of 50 μL per well, and the plates were allowed to stand overnight at 4° C. After removal of the antigen solutions, PBS containing 0.05% Tween-20 (hereinafter referred to as the blocking solution) was added to each well for blocking reaction, and the plates were allowed to stand at room temperature for 30 minutes. […] TMB (Dako) was added as a chromogenic substrate solution to cause color development, and 1 N sulfuric acid was added to stop the reaction, followed by measurement of absorbance at 450 nm. The binding rate of CXCLs to GAG was calculated as a ratio relative to the absorbance measured in the absence of the antibody, which was set to 100%.

For assay [2], the target named is T1, HuCXCL1. Nature of the assay: FACS, inhibition of binding of APC-labeled HuCXCL1 to HEK293 cells forced to express HuCXCR2. The format is cell-based. As to conditions: APC-labeled ligand 10 μg/mL; HEK293 cells expressing HuCXCR2. How it is done: (§3) Chemokines are stabilized by directly binding to GAG on the cell surface and thereby allow efficient signal transduction to their receptors. […] Then, to evaluate whether Hu5A-5E11 inhibits the binding of CXCLs to cells, the binding of fluorescently labeled CXCLs to cells was measured as fluorescence intensity by flow cytometry in FACS. For this purpose, HEK293 cells forced to express HuCXCR2 were used. For use as HuCXCL1, 2, 3 and 5 and MsCXCL1, the proteins in above were labeled with APC.
(§4) The cultured cells were detached and washed with PBS, and then suspended at 5.0× 10^5 cells/mL in PBS containing 1% BSA (hereinafter referred to as the FACS buffer). Each of the APC-labeled ligands and Hu5A-5E11 were mixed at final concentrations of 10 μg/mL and 16.7 μg/mL, respectively, and reacted at room temperature for 30 minutes, and then added to the cell suspension and reacted on ice for 30 minutes. After washing with the FACS buffer, the cells were suspended again in PBS containing 1% 7-AAD, 0.5% BSA and 2 mM EDTA, followed by the above flow cytometry to measure fluorescence intensity.
(A flow cytometer gives signals particle by particle.)

The target in the next assay is T2, HuCXCL2 (Homo sapiens, UniProt P19875).
T2 construct: purchased PROTEINTECH
T2 sequence (P19875 35-107): T1 sequence (P09341 35-107) with S2P, V3L, P20L, N27K, R48Q, I58M, N68K, S69N, D70G
Nature of the assay: FACS, inhibition of binding of APC-labeled HuCXCL2 to HEK293 cells forced to express HuCXCR2. The format is cell-based. As to conditions: APC-labeled ligand 10 μg/mL; HEK293 cells expressing HuCXCR2. How it is done: as §3, §4

Assay [3] has as its target T3, MsCXCL1 (Mus musculus, UniProt P12850).
T3 sequence (P12850 25-96): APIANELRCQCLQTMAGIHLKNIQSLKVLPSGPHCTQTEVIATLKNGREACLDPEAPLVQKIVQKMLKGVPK
As to the kind of experiment: ELISA, inhibition of binding of MsCXCL1 to GAG (heparin, heparan sulfate). The format is biochemical. The arrangement: purchased PROTEINTECH
Conditions: antibody 0 to 10 μg/mL; biotin-labeled heparin or heparan sulfate 10 μg/mL. The procedure:
as §1, §2
For orientation: An ELISA detects its analyte on a solid surface through an enzyme-linked reagent.

The target of a further assay is T4, HuCXCL5 (Homo sapiens, UniProt P42830).
T4 sequence (P42830 37-114): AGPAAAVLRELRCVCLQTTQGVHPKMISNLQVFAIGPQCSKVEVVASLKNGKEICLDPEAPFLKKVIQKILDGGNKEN
As to the kind of experiment: FACS, inhibition of binding of APC-labeled HuCXCL5 to HEK293 cells forced to express HuCXCR2. Set-up: purchased PROTEINTECH; host or cells: CXCR2: transfected HEK293 cells. The format is cell-based. As to conditions: APC-labeled ligand 10 μg/mL; HEK293 cells expressing HuCXCR2. The procedure:
as §3, §4

Assay [4] concerns the target T3, MsCXCL1. Nature of the assay: FACS, inhibition of binding of APC-labeled MsCXCL1 to HEK293 cells forced to express HuCXCR2. Type of assay: cell-based. The arrangement: purchased PROTEINTECH; host or cells: CXCR2: transfected HEK293 cells. As to conditions: APC-labeled ligand 10 μg/mL; HEK293 cells expressing HuCXCR2. How it is done: as §3, §4
Assay [5] has as its system OCUM-2MLN gastric cancer cell line. As to the kind of experiment: Efficacy evaluation in a model with OCUM-2MLN orthotopic transplantation. Type of assay: in vivo, mouse. As to conditions: 20 mg/kg intraperitoneally twice a week, 3 weeks, compared to PBS control. How it is done: Among the candidate antibodies, 3 types of antibodies (4A-2F7, 5A-5E11 and 028-8-12) were evaluated for their in vivo antitumor activity in a xenograft model with OCUM-2MLN orthotopic transplantation. Procedures for the evaluation are shown below.
For use as mice, female nude mice (BALB/cAJcl-nu/nu) at 5 to 6 weeks of age were purchased from Charles River Japan, Inc. As human cancer cells, a gastric cancer cell line, OCUM-2MLN, was used.
OCUM-2MLN cells were cultured in D-MEM medium (FUJIFILM Wako Pure Chemical Corporation, Japan) supplemented with 10% fetal bovine serum (FBS; NICHIREI BIOSCIENCE), 1/100 volumes of a penicillin-streptomycin mixture (FUJIFILM Wako Pure Chemical Corporation, Japan) and 1/100 volumes of a sodium pyruvate solution (SIGMA-ALDRICH). The cells to be transplanted were detached with a 0.05 w/v % trypsin/0.53 mmol/L EDTA 4Na solution (FUJIFILM Wako Pure Chemical Corporation, Japan) and washed with PBS, and 1× 10^6 cells per mouse were transplanted into the gastric wall of each mouse. […] After 3 weeks had passed from the transplantation, the mice were sacrificed, and the short- and long-axis diameters of tumors formed in their gastric walls were each measured with a caliper. The tumor size was calculated according to the following: short-axis diameter (mm)×long-axis diameter (mm).

From patent publication US20250154240A1, “ANTI-HUMAN CXCL1 ANTIBODY” (CHIOME BIOSCIENCE INC., priority 2022, published 2025) come the findings set out here.

Positions count from the first letter of the chain named.

B1: Hu5A-5E11: humanized antibody VH1/VL1; VH SEQ ID NO: 76, VL SEQ ID NO: 78 (antibody, V domains shown)
VH: QVQLVQSGAEVKKPGSSVKVSCKASGYAFSDYWMNWVRQAPGQGLEWIGQIYPGSGDTNYNAKFKGKGTITADKSTSTAYMELSSLRSEDTAVYYCARERDYDVAMDYWGQGTTVTVSS
VL: DIQMTQSPSSLSASVGDRVTITCKASQDINKYIAWFQQKPGKAPKLVIHYTSILQPGVPSRFSGSGSGTDYTFTISSLQPEDIATYYCLQYDNLPWTFGGGTKVEIK
As to B1, in the assay with HuCXCL1 [1], the “Inhibitory activity against the binding of HuCXCL1 to GAG” value was “inhibit the binding of HuCXCL1, 2, 3 and 5 and MsCXCL1 to GAG in an antibody concentration-dependent manner”. Besides, the “Inhibitory activity against the binding of HuCXCL1 to cells (fluorescence intensity)” value with HuCXCL1 [2] was “reduce the fluorescence intensity of the cells in an antibody concentration-dependent manner”. Further, in the assay with HuCXCL2, the “Inhibitory activity against the binding of HuCXCL2 to cells (fluorescence intensity)” value was “reduce the fluorescence intensity of the cells in an antibody concentration-dependent manner”. Also, the “Inhibitory activity against the binding of MsCXCL1 to GAG” value with MsCXCL1 [3] was “inhibit the binding of HuCXCL1, 2, 3 and 5 and MsCXCL1 to GAG in an antibody concentration-dependent manner”. In addition, the “Inhibitory activity against the binding of HuCXCL5 to cells (fluorescence intensity)” value with HuCXCL5 is recorded as “reduce the fluorescence intensity of the cells in an antibody concentration-dependent manner”. In the assay with MsCXCL1 [4], the “Inhibitory activity against the binding of MsCXCL1 to cells (fluorescence intensity)” value is recorded as “reduce the fluorescence intensity of the cells in an antibody concentration-dependent manner”.

B2: 4A-2F7: mouse monoclonal anti-HuCXCL1 antibody clone; VH SEQ ID NO: 9, VL SEQ ID NO: 13 (antibody, listed as Mus musculus, V domains shown)
VH: QVTLKESGPGILKPSQTLSLTCSFSGFSLSTSGMGVDWIRQPSGKGLEWLAHIWWDDDKYYNPSLKSQLTISKDTSRNQVFLKITSVDTADTATYYCARSYGYDMDYYAMDYWGQGTSVTVSS
VL: DIQMTQSPSSLSASLGERVSLTCRASQEISGYLSWLQQKPDGTIKRLIYAASTLDSGVPKRFSGSRSGSDYSLTISSLESEDFADYYCLQYASYPPWTFGGGTKLEIK
B2: in assay [5], the “Antitumor activity (tumor growth, tumor size)” value is reported as “significantly suppress tumor growth”.

B3: 5A-5E11: mouse monoclonal anti-HuCXCL1 antibody clone; VH SEQ ID NO: 17, VL SEQ ID NO: 21 (antibody, listed as Mus musculus, V domains shown)
VH: QVQLQQSGAELVRPGSSVKISCKASGYAFSDYWMNWVKQRPGQGLEWIGQIYPGDGDTNYNGKFKGKGTLTADKSSSTAYMQLNSLTSEDSAVYFCARERDYDVAMDYWGQGTSVTVSS
VL: DIQMTQSPSSLSASLGGKVTITCKASQDINKYIAWFQHKPGKGPRLVIHYTSILQPGIPSRFSGVGSGRDYSFSIRNLEPEDIATYYCLQYDNLPWTFGGGTKLEIK
On to B3, for which the “Antitumor activity (tumor growth, tumor size)” value in assay [5] was “significantly suppress tumor growth”.
